Assay results as given in US5503978, “Method for identification of high affinity DNA ligands of HIV-1 reverse transcriptase” (University Research Corporation).

Legend:
[1] = target: T1, HIV-1 reverse transcriptase (HIV-1, UniProt P04585;P04585 P04585:588-1147,P04585:588-1027); experiment: inhibition; Ki' for RNA-dependent DNA polymerase activity; 37 C, 40 nM primer:template; settings: tags: overexpressed in E. coli, purified per Davies et al. 1991; label: 5'-32P; long interrupted helix with AA/CG internal loop
From the text: A substrate for the RNA-dependent DNA polymerase activity of HIV-1 RT was assembled by annealing an 18 nucleotide, 5' end-labeled DNA primer to a 30 nucleotide RNA template with a complementary 3' end (see FIG. 10), and purifying the duplex on a 12% non-denaturing acrylamide gel. The primer sequence matched the 3' terminal 18 nucleotides of tRNA^{Lys,3}, responsible for priming minus-strand DNA synthesis of the HIV-1 genome, and the template sequence paralleled the HIV-1 genomic primer binding site and downstream 12 nucleotides. A dilution series of inhibitory ssDNA ligand (to give a final concentration of 0, 1, 3, 9, 27, or 81 nM) was denatured in HRT Buffer at 70° C. for 5 minutes and allowed to renature slowly at 20° C. The primer:template substrate was added to a final concentration of 40 nM, along with dNTP's at 400 µM. The 10 µl reaction was initiated with the addition of either HIV-1, AMV, or MMLV-RT (to give a final concentration of 10 nM), allowed to proceed for 5 minutes at 37° C., and terminated with one volume of formamide. Extension products were separated on an 8% denaturing acrylamide gel and quantitated with an Ambis radioanalytic imager. […]

[2] = target: T1, HIV-1 reverse transcriptase; experiment: filter; HRT buffer, 6 mM MgCl2, 37 C; settings: tags: overexpressed in E. coli, purified per Davies et al. 1991, label: 5'-32P
[3] = target: T1, HIV-1 reverse transcriptase; experiment: inhibition; Ki' for RNA-dependent DNA polymerase activity; settings: tags: overexpressed in E. coli, purified per Davies et al. 1991
From the text: A substrate for the RNA-dependent DNA polymerase activity of HIV-1 RT was assembled by annealing an 18 nucleotide, 5' end-labeled DNA primer to a 30 nucleotide RNA template with a complementary 3' end (see FIG. 10), and purifying the duplex on a 12% non-denaturing acrylamide gel. The primer sequence matched the 3' terminal 18 nucleotides of tRNA^{Lys,3}, responsible for priming minus-strand DNA synthesis of the HIV-1 genome, and the template sequence paralleled the HIV-1 genomic primer binding site and downstream 12 nucleotides. A dilution series of inhibitory ssDNA ligand (to give a final concentration of 0, 1, 3, 9, 27, or 81 nM) was denatured in HRT Buffer at 70° C. for 5 minutes and allowed to renature slowly at 20° C. The primer:template substrate was added to a final concentration of 40 nM, along with dNTP's at 400 µM. The 10 µl reaction was initiated with the addition of either HIV-1, AMV, or MMLV-RT (to give a final concentration of 10 nM), allowed to proceed for 5 minutes at 37° C., and terminated with one volume of formamide. Extension products were separated on an 8% denaturing acrylamide gel and quantitated with an Ambis radioanalytic imager.
The ability of each of the 8 isolates to inhibit the RNA-dependent DNA polymerase activity of HIV-1 RT was assayed by measuring the decrease in extension product formation from a primer:template substrate as a function of inhibitor concentration (FIGS. 10A–10E). The substrate for the inhibition assay was a DNA:RNA heteroduplex consisting of an 18 nucleotide end-labeled DNA primer identical in sequence to the 3' end of tRNA^{Lys,3} annealed to a 30 nucleotide RNA template whose sequence matches the genomic primer binding site and the first twelve transcribed nucleotides. Extension reactions were performed as described in Example 1 in the presence of 0, 81, 27, 9, 3, and 1 nM inhibitor as indicated in FIG. 10.

[4] = target: T1, HIV-1 reverse transcriptase; experiment: filter; HRT buffer, 37 C; settings: tags: overexpressed in E. coli, purified per Davies et al. 1991; pseudoknot
[5] = target: T1, HIV-1 reverse transcriptase; experiment: competition; Kc for displacement of RT1; settings: tags: overexpressed in E. coli, purified per Davies et al. 1991; pseudoknot
Experimental: To test this, we measured the ability of the ssDNA ligand RT1 (SEQ ID NO:71) to maintain its specific binding contacts with HIV-1 RT in the presence of high concentrations of RNA pseudoknot (see FIG. 8). […] The percent of RT1 bound in the presence of competitor relative the percent bound in the absence of competitor is plotted as a function of RNA pk concentration. […] As shown graphically in FIG. 14, when a stoichiometric equivalent of RNA pk was added, approximately one half of the complexed RT1 was displaced, and nearly all was displaced when a large excess of RNA was added. […] However, with this assay we are unable to distinguish between an interaction of both ligands at a common site or an interaction of each at different sites, with a conformational change upon binding the first that prevents subsequent binding of the second.

[6] = target: T1, HIV-1 reverse transcriptase; experiment: filter; nearly as high as full-length RT1; settings: tags: overexpressed in E. coli, purified per Davies et al. 1991

B1: RT1 (ssDNA)
DNA: ATCCGCCTGATTAGCGATACTCAGAAGGATAAACTGTCCAGAACTTGGAATATATCACTTGAGCAAAATCACCTGCAGGGG
Ki [1]: 0.3 nM | Kd ([2]; long interrupted helix with AA/CG internal loop): ~1 nM

B2: RT26 (ssDNA)
DNA: ATCCGCCTGATTAGCGATACTTACGTGAGCGTGCTGTCCCCTAAAGGTGATACGTCACTTGAGCAAAATCACCTGCAGGGG
Ki ([3]; label: 5'-32P, intramolecular primer:template junction, AA/CG internal loop): 2.7 nM | Kd ([2]; intramolecular primer:template junction, AA/CG internal loop): ~1 nM

B3: RT6 (ssDNA)
DNA: ATCCGCCTGATTAGCGATACTCAGGCGTTAGGGAAGGGCGTCGAAAGCAGGGTGGGACTTGAGCAAAATCACCTGCAGGGG
Ki ([3]; label: 5'-32P): 30 nM | Kd [2]: 5 nM

GGUCCGAAGUGCAACGGGAAAAUGCACU (ssRNA) [RNA pseudoknot (RNA pk)]
Kd [4]: 5 nM | Ki [5]: 3 nM | Ki ([3]; pseudoknot): 4.7 nM

B4: RT4 (ssDNA)
DNA: ATCCGCCTGATTAGCGATACTTTAGCAAAGTTGAAGCCGGACTAACAAGCTCTACGACTTGAGCAAAATCACCTGCAGGGG
Ki ([3]; label: 5'-32P, internal loop AA opposite AG): 4.1 nM

B5: RT36 (ssDNA)
DNA: ATCCGCCTGATTAGCGATACTAAGCTCTTAGTTGATGCGCGGTCAAAATTTAAGCTACTTGAGCAAAATCACCTGCAGGGG
Ki ([3]; label: 5'-32P, internal loop AA opposite A): 6.5 nM

B6: RT8 (ssDNA)
DNA: ATCCGCCTGATTAGCGATACTAGCCAGTCAAGTTAATGGGTGCCATGCAGAAGCAACTTGAGCAAAATCACCTGCAGGGG
Ki ([3]; label: 5'-32P, internal loop CAA opposite TAG): 13 nM

B7: RT10 (ssDNA)
DNA: ATCCGCCTGATTAGCGATACTTATTTGCCCTTGCAGGCCGCAGGAGTGCTAGCAGTACTTGAGCAAAATCACCTGCAGGGG
Ki ([3]; label: 5'-32P, intramolecular primer:template junction (3' AGGGG paired with CCCCT)): 62 nM

ATCCGCCTGAATAGCGATACTCAGAAGGATAAACTGTCCAGAACTTGGA (ssDNA) [RT1t49]
Kd [6]: 4 nM
